1 molecule from US20220242963A1, “B-CELL ACTIVATING CD73 ANTIBODIES” (CORVUS PHARMACEUTICALS, INC., priority 2018, published 2022) can be followed below.

The subject of the experiment is B cells (CD19+CD3−). The experiment is described as follows: B cell activation in healthy donor PBMC, flow cytometry of surface markers / phospho ERK. Format: cell-based, human. From the text:
With reference to FIGS. 2A-2E, each group of four bars from left to right represent data for: untreated donors, donors treated with human IgG1 isotype control, donors treated with BCR stimulation, and donors treated with CPI-006. The experiments for FIGS. 2A-2E are based on healthy donor PBMC treated overnight with flow cytometry analysis of surface markers on B cells (CD19^POS CD3^NEG). These lymphocyte markers are consistent with activation of B cells as well as other antigen presenting cell populations. […] The bar graph legend from top to bottom is representative of the data bars from left to right. […] For FIG. 2H the bar graph legend from top to bottom is representative of the data bars from left to right. For FIG. 2I the legend from top to bottom is representative of the data from top to bottom. […] For each group of four bars, the legend from top to bottom are representative of the bars from left to right.
PBMC were isolated from healthy donors and incubated with bead-bound anti-IgM, CPI-006 (10 μg/mL), or human IgG1 isotype control (10 μg/mL) overnight. Flow cytometry analysis was performed with gating on B cells (CD19+CD3−) and mean fluorescence intensity (MFI) was reported for staining with antibodies to the cell surface markers CD69, CD83, and CD25, as shown in FIGS. 2A-2C. PBMC were isolated from healthy donors and incubated with CPI-006, CPI-016, human IgG1 isotype control, and anti-human CD73 antibody, clone AD2 (available from Bio-Rad Antibodies) over a range of concentrations from about 0.1 μg/mL to more than 10 μg/mL. Flow cytometry analysis was performed with gating on B cells (CD19+CD3−) and mean fluorescence intensity (MFI) is reported for antibody staining of CD69, as shown in FIG. 2F. PBMC were isolated from healthy donors and incubated overnight with bead-bound anti-IgM or CPI-006 (1 μg/mL)+/−BTK inhibitor, ibrutinib (100 nM). Flow cytometry analysis was performed with gating on B cells (CD19+CD3−) and mean fluorescence intensity (MFI) is reported for antibody staining of CD69 and CD83, as shown in FIG. 2G. PBMC were isolated from healthy donors and incubated overnight with APCP (1 μM) or CPI-006 (1 μg/mL)+/−NECA (5′-N-ethylcarboxamidoadenosine). Flow cytometry analysis was performed with gating on B cells (CD19+CD3−) and mean fluorescence intensity (MFI) is reported for antibody staining of CD69, as shown in FIGS. 2H-2I. PBMC were isolated from healthy donors and incubated with the indicated treatments for 15 minutes. Flow cytometry analysis was performed with gating on the indicated cell populations and staining of phospho ERK was evaluated, as shown in FIG. 2J.
(A flow cytometer gives signals particle by particle.)

B1: CPI-006: humanized CD73 antibody, wherein the light chain is SEQ ID NO:8 and the heavy chain is SEQ ID NO:7; IgG1 Fcγ receptor-deficient (antibody, V domains shown)
VH: QVQLVQSGAEVEKPGASVKVSCKASGYTFTSYWITWVRQAPGQGLEWMGDIYPGSGNTNYNEKFKTRVTITADKSTSTAYMELSSLRSEDTAVYYCAKEGGLTTEDYALDYWGQGTLVTV
VL: EIVLTQSPATLSLSPGERATLSCRASKNVSTSGYSYMHWYQQKPGQAPRLLIYLASNLESGIPPRFSGSGYGTDFTLTINNIESEDAAYYFCQHSRELPFTFGQGTKVEIK
Consider B1, for which the “B cell activation (CD69, CD83) +/− NECA, versus APCP” value (CPI-006 1 μg/mL, APCP 1 μM, overnight, FIGS. 2H-2I) is “independent of adenosine”. Besides, the “B cell activation (CD69, CD83) +/− BTK inhibitor ibrutinib” value (CPI-006 1 μg/mL, ibrutinib 100 nM, overnight, FIG. 2G) is given as “via BTK”. For the setting “PBMC overnight, CPI-006 10 μg/mL, gated on B cells, FIG. 2A”, the “expression of B cell activation marker CD69” value was “induces expression”. Besides, the “expression of B cell activation marker CD83” value (PBMC overnight, CPI-006 10 μg/mL, gated on B cells, FIG. 2B) is listed as “induces expression”. Moreover, under “PBMC overnight, CPI-006 10 μg/mL, gated on B cells, FIG. 2C”, the “expression of B cell activation marker CD25” value is reported as “induces expression”. Moreover, for the setting “PBMC overnight, gated on B cells, FIG. 2D”, the “antigen-presenting cell marker CD86” value is listed as “activates”. The “antigen-presenting cell marker MHC-II” value (PBMC overnight, gated on B cells, FIG. 2E) is listed as “activates”. For the same molecule, the “phospho-ERK signaling in B cells versus T cells” value (PBMC, 15 minutes, FIG. 2J) is reported as “to a greater extent than in CD4+ T cells or CD8+ T cells”. The “induction of B cell activation (CD69 MFI) compared with other antibodies” value (about 0.1 μg/mL to more than 10 μg/mL, versus CPI-016, isotype control, AD2, FIG. 2F) is recorded as “unique to CPI-006”. The “direct B cell activation” value (human B lymphocytes) is recorded as “directly activates human B lymphocytes”.
